Data from publication PMC6352652 (2018).

How the values were obtained:
[1] = target: T1, FBG domain of rat tenascin-C (rat); experiment: SPR; 37°C
T1 chain: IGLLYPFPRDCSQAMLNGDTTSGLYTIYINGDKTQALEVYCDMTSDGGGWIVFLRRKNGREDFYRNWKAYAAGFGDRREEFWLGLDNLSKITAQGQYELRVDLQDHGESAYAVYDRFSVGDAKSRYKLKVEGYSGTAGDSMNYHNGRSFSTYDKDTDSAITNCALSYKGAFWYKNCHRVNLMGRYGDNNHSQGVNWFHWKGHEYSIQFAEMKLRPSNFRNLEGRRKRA

[2] = target: T2, fibrinogen-like globe (FBG) domain of human tenascin-C (human, UniProt P24821 1975-2201); experiment: SPR; 37°C
T2 chain: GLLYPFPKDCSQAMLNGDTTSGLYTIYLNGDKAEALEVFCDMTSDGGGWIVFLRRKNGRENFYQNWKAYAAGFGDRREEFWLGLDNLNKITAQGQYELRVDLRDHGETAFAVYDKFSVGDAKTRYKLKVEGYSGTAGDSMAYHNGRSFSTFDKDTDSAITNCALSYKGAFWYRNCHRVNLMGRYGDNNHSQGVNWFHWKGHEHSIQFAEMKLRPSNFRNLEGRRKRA

B1: monoclonal antibody C3 (antibody, V domains shown)
VH: QVQLVESGGGLVQPGRSLRLSCAASGFTFDDYAMHWVRQAPGKGLEWVSGISGSGGSTYYADSVKGRFTISRDNAKNSLYLQMNSLRAEDTALYYCAKSYQSDEDAFDIWGQGTMVTVSS
VL: DIQMTQSPASLPTPVGDRVTITCRASQYIQGFLNWYQQKPGKAPKLLIYDASNLETGVPSRFSGSGSGTDFTLTISSLQPEDFATYYCQQSYSTPQTFGQGTKVDIK
koff [1]: 0.00473 s⁻¹ | koff [2]: 0.00083 s⁻¹
